Seven molecules from article doi:10.1101/2024.08.19.608523 (bioRxiv, 2024) can be followed below.

Broadly, the Kd is the free concentration of one partner at which half of the binding sites on the other are occupied at equilibrium, for simple one-to-one binding. Higher therefore signals weaker binding. What is called stoichiometry N is the number of molecules, sites or subunits per partner or assembly.

In series [1] the target is microtubules (polymerized porcine brain tubulin) (porcine) (UniProt Q2XVP4). Nature of the series: co-sedimentation.
The series “SEC” concerns the molecule itself. Put plainly: SEC. For orientation: Size exclusion chromatography separates by hydrodynamic size, large species first.

With “GAS2-GAR W257E (from UniProt P11862 198-314) (domain or fragment)”, the Kd in series [1] was found to be 27 µM.

“GAS2-GAR K266E (from UniProt P11862 198-314) (domain or fragment)”: the Kd in series [1] is 10.6 µM. This Kd lies about 2.5-fold lower than the previous one. Still for that read-out and setting: in the case of “GAS2-GAR G255E (from UniProt P11862 198-314) (domain or fragment)” it was 9.6 µM; in that of “GAS2-GAR G255A (from UniProt P11862 198-314) (domain or fragment)”, 2.69 µM. On the same count and under the same terms, to “GAS2-GAR R242E (from UniProt P11862 198-314) (domain or fragment)” belongs 5 µM; to “GAS2-GAR R252E (from UniProt P11862 198-314) (domain or fragment)”, 47 µM.

B1: GAS2-GAR domain (residues 198-314) (domain or fragment)
chain: STGNLLDDAVKRISEDPPCKCPTKFCVERLSQGRYRVGEKILFIRMLHNKHVMVRVGGGWETFAGYLLKHDPCRMLQISRVDGKTSPVQSKSPTLKDMNPDNYLVVSATYKAKKEIK
Molecule B1 showed a Kd in series [1] of 0.69 µM. Moreover, in the series “SEC”, the “stoichiometry N” value was 2.
